B1: PPO3A: nucleotide sequence encoding microbial protoporphyrinogen oxidase PPO3 (SEQ ID NO:3), Arabidopsis thaliana/soybean common codon usage bias (nucleic acid)
DNA: ATGAGTGCCCTGTTGTTGTATTGTTCAACTGATGGTCAAACCAAGAAGATAATGACACAGATAGCTAATGAACTGAGACAACATGGTTATGAATGTGATGTGCGGGATCTTACTTCTGTTCAACAAAATCTCAATCTTTCAGCTTACAACAAAGTTTTGGTAGGAGCTTCCATAAGATATGGATACTTCAATAAAGCACTTGACAAGTTCATCACGAGGCACCTCTCTCAGTTAAACAACATGCCTTCTGCTTTCTTTGGTGTCAATTTGACTGCAAGAAAAGAAGAGAAGAGCACTCCCGAAACAAACAGTTACATCTGCAAGTTTCTAGACAAAACACCATGGAAACCAACCTTAACTGGAGTCTTCGCCGGGGCGCTTTTTTATCCTCGTTACAAATGGATTGATCGAGTGATGATTCAGCTTATCATGAAGATGACTAAAGGAGAAACCGATCCGACAAAAGAGATTGAGTATACAGATTGGAACAAGGTTTCGGAGTTTGCTACGAATTTTGCAAAGATTGGCTGA
modifications: PPO3A Nucleotide Sequence
B2: PPO4A: nucleotide sequence encoding microbial protoporphyrinogen oxidase PPO4 (SEQ ID NO:4), Arabidopsis thaliana/soybean common codon usage bias (nucleic acid)
DNA: ATGAAAACCCTGATTCTTTACAGCAGTCATGATGGACAGACCAAGAAAATCTCAGAGTTCCTTACGGCGTTGTTGAATGGCGAAGTTCTAGTTGATGCTCTACGTGAAGATTATGATATTGAAACATTTGACCAAGTTATAATCGGAGCTTCCATAAGGTATGGTCACTTTTCTAAGACTTTAGACAGATTTGTGGTGAGAAACAGGGTACATCTGGAACAAAAACGAGCAGTATTCTTCTCTGTTAACTTAACTGCCCGAAAAGAAGGTAAAGACAATCCTGAAACTAATGTCTATGTCAGAAAGTTTCTCCAGAGAACAAAATGGCAACCAAAACTTGCTGCCGTCTTCGCAGGTGCACTCTTGTACCCGAGATATAAGTGGTTTGATCGTGTGATGATTCGGTTTATCATGAAGATTACTGGGGGAGAGACGGATATAACAAAGGAGATTGAGTACACAGATTGGGAAAAGGTTAGGGAGTTCGCTCAGAGAATCAACCGCCTTGAGAAATGA
modifications: PPO4A Nucleotide Sequence

Key:
Format in all cases: in vivo
Details in all cases: 7 DAT, number of plants of 24 per genotype, grades
[1] = test system: Arabidopsis thaliana T1 plants; assay: saflufenacil tolerance of transgenic Arabidopsis thaliana T1 plants (spray, grade of pesticide damage)
Source text: (§1) The transformed Arabidopsis thaliana T1 plants were initially selected using glufosinate herbicide. The Arabidopsis thaliana T1 plants (PPO1A) into which the PPO1A nucleotide sequence was introduced, the Arabidopsis thaliana T1 plants (PPO2A) into which the PPO2A nucleotide sequence was introduced, the Arabidopsis thaliana T1 plants (PPO3A) into which the PPO3A nucleotide sequence was introduced, the Arabidopsis thaliana T1 plants (PPO4A) into which the PPO4A nucleotide sequence was introduced, the Arabidopsis thaliana T1 plants (PPO5A) into which the PPO5A nucleotide sequence was introduced, the Arabidopsis thaliana T1 plants (PPO6A) into which the PPO6A nucleotide sequence was introduced, the Arabidopsis thaliana T1 plants (PPO7A) into which the PPO7A nucleotide sequence was introduced, the Arabidopsis thaliana T1 plants (PPO8A) into which the PPO8A nucleotide sequence was introduced, the Arabidopsis thaliana T1 plants (PPO9A) into which the PPO9A nucleotide sequence was introduced, the Arabidopsis thaliana T1 plants (PPO10A) into which the […] nucleotide sequence was introduced, the Arabidopsis thaliana T1 plants (PPO11A) into which the PPO11A nucleotide sequence was introduced, the Arabidopsis thaliana T1 plants (PPO12A) into which the PPO12A nucleotide sequence was introduced, the Arabidopsis thaliana T1 plants (PPO13A) into which the PPO13A nucleotide sequence was introduced, the Arabidopsis thaliana T1 plants (PPO14A) into which the PPO14A nucleotide sequence was introduced, the Arabidopsis thaliana T1 plants (PPO-ATA) into which the PPO-ATA nucleotide sequence was introduced, the Arabidopsis thaliana T1 plants (PPO-APA) into which the PPO-APA nucleotide sequence was introduced, the Arabidopsis thaliana T1 plants (control vector) into which the control vector was introduced, and the wild-type Arabidopsis thaliana plants (CK) (with 24 plants being included in each genotype) (18 days after sowing) were sprayed with oxyfluorfen at three concentrations (180 g ai/ha (one-fold field concentration, 1×), 720 g ai/ha (four-fold field concentration, 4×), and 0 g ai/ha (water, 0×)), saflufenacil at three concentrations (25 g ai/ha (one-fold field concentration, 1×), 100 g ai/ha (four-fold field concentration, 4×), and 0 g ai/ha (water, 0×)), flumioxazin at three concentrations (60 g ai/ha (one-fold field concentration, 1×), 240 g ai/ha (four-fold field concentration, 4×), and 0 g ai/ha (water, 0×), and sulfentrazone at three concentrations (450 g ai/ha (one-fold field concentration, 1×), 900 g ai/ha (two-fold field concentration, 2×), and 0 g ai/ha (water, 0×) to determine the tolerance of Arabidopsis thaliana to the herbicides. After 7 days of spraying (7 DAT), the damage level of each plant caused by the herbicide was evaluated according to the average of the damage levels (%) of plants (the average of the damage levels (%) of plants=the injured leaf area/the total leaf area×[…]), i.e., the grade of pesticide damage: grade 0 means that the growth status of plants is essentially consistent with those sprayed with the blank solvent (water); grade 1 means that the average of the damage levels of plants is less than 10%; grade 2 means that the average of the damage levels of plants is greater than […]; and grade 3 means that the average of the damage levels of plants is 100%. The plants having a growth status falling within grades 0 and 1 are classified as highly resistant plants; those having a growth status falling within grade 2 are classified as poorly resistant plants; and those having a growth status falling within grade 3 are classified as non-resistant plants.

[2] = test system: Arabidopsis thaliana T1 plants; assay: sulfentrazone tolerance of transgenic Arabidopsis thaliana T1 plants (spray, grade of pesticide damage)
Source text: as §1

[3] = test system: Arabidopsis thaliana T1 plants; assay: flumioxazin tolerance of transgenic Arabidopsis thaliana T1 plants (spray, grade of pesticide damage)
Source text: as §1

[4] = test system: Arabidopsis thaliana T1 plants; assay: oxyfluorfen tolerance of transgenic Arabidopsis thaliana T1 plants (spray, grade of pesticide damage)
Source text: as §1

| Molecule | The grade of pesticide damage/plant: grade 0 ([1]; saflufenacil 25 g ai/ha (1×)) [plant] | The grade of pesticide damage/plant: grade 1 ([1]; saflufenacil 25 g ai/ha (1×)) [plant] | The grade of pesticide damage/plant: grade 2 ([1]; saflufenacil 25 g ai/ha (1×)) [plant] | The grade of pesticide damage/plant: grade 3 ([1]; saflufenacil 25 g ai/ha (1×)) [plant] | The grade of pesticide damage/plant: grade 0 ([1]; saflufenacil 100 g ai/ha (4×)) [plant] | The grade of pesticide damage/plant: grade 1 ([1]; saflufenacil 100 g ai/ha (4×)) [plant] | The grade of pesticide damage/plant: grade 2 ([1]; saflufenacil 100 g ai/ha (4×)) [plant] | The grade of pesticide damage/plant: grade 3 ([1]; saflufenacil 100 g ai/ha (4×)) [plant] | The grade of pesticide: grade 0 ([2]; sulfentrazone 450 g ai/ha (1×)) | The grade of pesticide: grade 1 ([2]; sulfentrazone 450 g ai/ha (1×)) | The grade of pesticide: grade 2 ([2]; sulfentrazone 450 g ai/ha (1×)) | The grade of pesticide: grade 3 ([2]; sulfentrazone 450 g ai/ha (1×)) | The grade of pesticide: grade 0 ([2]; sulfentrazone 900 g ai/ha (2×)) | The grade of pesticide: grade 1 ([2]; sulfentrazone 900 g ai/ha (2×)) | The grade of pesticide: grade 2 ([2]; sulfentrazone 900 g ai/ha (2×)) | The grade of pesticide: grade 3 ([2]; sulfentrazone 900 g ai/ha (2×)) | The grade of pesticide damage/plant: grade 0 ([3]; flumioxazin 60 g ai/ha (1×)) [plant] | The grade of pesticide damage/plant: grade 1 ([3]; flumioxazin 60 g ai/ha (1×)) [plant] | The grade of pesticide damage/plant: grade 2 ([3]; flumioxazin 60 g ai/ha (1×)) [plant] | The grade of pesticide damage/plant: grade 3 ([3]; flumioxazin 60 g ai/ha (1×)) [plant] | also measured |
| --- | --- | --- | --- | --- | --- | --- | --- | --- | --- | --- | --- | --- | --- | --- | --- | --- | --- | --- | --- | --- | --- |
| B1 | 24 | 0 | 0 | 0 | 2 | 22 | 0 | 0 | 24 | 0 | 0 | 0 | 20 | 4 | 0 | 0 | 24 | 0 | 0 | 0 | The grade of pesticide damage/plant: grade 0 ([3]; flumioxazin 240 g ai/ha (4×)): 24 plant; The grade of pesticide damage/plant: grade 1 ([3]; flumioxazin 240 g ai/ha (4×)): 0 plant; The grade of pesticide damage/plant: grade 2 ([3]; flumioxazin 240 g ai/ha (4×)): 0 plant; The grade of pesticide damage/plant: grade 3 ([3]; flumioxazin 240 g ai/ha (4×)): 0 plant; The grade of pesticide damage/plant: grade 0 ([4]; oxyfluorfen 180 g ai/ha (1×)): 24 plant; The grade of pesticide damage/plant: grade 1 ([4]; oxyfluorfen 180 g ai/ha (1×)): 0 plant; The grade of pesticide damage/plant: grade 2 ([4]; oxyfluorfen 180 g ai/ha (1×)): 0 plant; The grade of pesticide damage/plant: grade 3 ([4]; oxyfluorfen 180 g ai/ha (1×)): 0 plant; The grade of pesticide damage/plant: grade 0 ([4]; oxyfluorfen 720 g ai/ha (4×)): 20 plant; The grade of pesticide damage/plant: grade 1 ([4]; oxyfluorfen 720 g ai/ha (4×)): 4 plant; The grade of pesticide damage/plant: grade 2 ([4]; oxyfluorfen 720 g ai/ha (4×)): 0 plant; The grade of pesticide damage/plant: grade 3 ([4]; oxyfluorfen 720 g ai/ha (4×)): 0 plant |
| B2 | 24 | 0 | 0 | 0 | 4 | 20 | 0 | 0 | 24 | 0 | 0 | 0 | 18 | 6 | 0 | 0 | 24 | 0 | 0 | 0 | The grade of pesticide damage/plant: grade 0 ([3]; flumioxazin 240 g ai/ha (4×)): 22 plant; The grade of pesticide damage/plant: grade 1 ([3]; flumioxazin 240 g ai/ha (4×)): 2 plant; The grade of pesticide damage/plant: grade 2 ([3]; flumioxazin 240 g ai/ha (4×)): 0 plant; The grade of pesticide damage/plant: grade 3 ([3]; flumioxazin 240 g ai/ha (4×)): 0 plant; The grade of pesticide damage/plant: grade 0 ([4]; oxyfluorfen 180 g ai/ha (1×)): 24 plant; The grade of pesticide damage/plant: grade 1 ([4]; oxyfluorfen 180 g ai/ha (1×)): 0 plant; The grade of pesticide damage/plant: grade 2 ([4]; oxyfluorfen 180 g ai/ha (1×)): 0 plant; The grade of pesticide damage/plant: grade 3 ([4]; oxyfluorfen 180 g ai/ha (1×)): 0 plant; The grade of pesticide damage/plant: grade 0 ([4]; oxyfluorfen 720 g ai/ha (4×)): 22 plant; The grade of pesticide damage/plant: grade 1 ([4]; oxyfluorfen 720 g ai/ha (4×)): 2 plant; The grade of pesticide damage/plant: grade 2 ([4]; oxyfluorfen 720 g ai/ha (4×)): 0 plant; The grade of pesticide damage/plant: grade 3 ([4]; oxyfluorfen 720 g ai/ha (4×)): 0 plant |
